According to paper PMC10120378:
Read-outs that look alike come from different tables or passages of the source.

What was measured:
Test in all cases: fluorescence polarization
HUα2 wild-type [1] = target: T1, HUα2 wild-type (Escherichia coli (MG1655-derived …, UniProt P0ACF0 1-90))
HUα2 P63A [2] = target: T2, HUα2 P63A (Escherichia coli (MG1655-derived …, UniProt P0ACF0 1-90, P63A))
HUα2 wild-type [3] = target: T1, HUα2 wild-type; remark: listed apart in the source
HUα2 P63A [4] = target: T2, HUα2 P63A; remark: listed apart in the source

Row | Binder | Kd (HUα2 wild-type [1]) [nM] | binding result (HUα2 P63A [2]) | Kd (HUα2 wild-type [3]) [nM] | Kd (HUα2 P63A [4]) [nM]
1 | linear DNA of random sequence (40 bp) (dsDNA) DNA 1: CCGACTAAGTACATGTGAGAATTTTGCTGCCTTCGAACCT DNA 2: AGGTTCGAAGGCAGCAAAATTCTCACATGTACTTAGTCGG | 51 ± 4 | binds | – | –
2 | cruciform DNA (structured_DNA) DNA 1: CCTAGCAAGGGGCTGCTACCTTTGGTAGCAGCCTGAGCGGTGG DNA 2: CCACCGCTCAACTCAACTGCTTTGCAGTTGAGTCCTTGCTAGG | – | – | 178 ± 22 | 352
